Reference: US20220363763A1 (ABL BIO, published 2022)

Key:
[1] = target: T1, recombinant his-tag human LAG3-ECD protein (human, UniProt P18627 23-450); assay: SPR Biacore T200, antibody captured by anti-human Fc, LAG3-ECD-his injected
T1 construct: extracellular domain; not shown: his tag
T1 sequence (looked up): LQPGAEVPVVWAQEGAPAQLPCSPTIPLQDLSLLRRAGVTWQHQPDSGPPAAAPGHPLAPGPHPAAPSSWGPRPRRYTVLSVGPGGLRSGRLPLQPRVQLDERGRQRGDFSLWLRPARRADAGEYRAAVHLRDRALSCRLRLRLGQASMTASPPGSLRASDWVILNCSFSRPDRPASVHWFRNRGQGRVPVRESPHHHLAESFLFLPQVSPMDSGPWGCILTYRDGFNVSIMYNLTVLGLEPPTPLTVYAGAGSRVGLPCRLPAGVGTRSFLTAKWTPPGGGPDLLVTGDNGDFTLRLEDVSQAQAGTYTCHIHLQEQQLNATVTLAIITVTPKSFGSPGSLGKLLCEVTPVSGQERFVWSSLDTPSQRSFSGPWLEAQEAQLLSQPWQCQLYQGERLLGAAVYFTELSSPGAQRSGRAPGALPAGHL
How it was run: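 Antibodies captured on chip-coated anti-human Fc; his-tag human LAG3-ECD injected at serial concentrations of 0-4 nM, flow 30 μl/min. Dissociation phase 900 s or 550 s.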

[2] = target: T2, recombinant human LAG-3-ECD-human IgG1 fusion protein (human, UniProt P18627 23-450, biotin-labeled in the MHC class II blocking assays); assay: ELISA on coated human LAG3 ECD-Fc; EC50 table has no unit, x axis Ab(nM)
T2 construct: extracellular domain; also called LAG-3-huFc; LAG-3-ECD-huFc; not shown: human IgG1 Fc
T2 sequence (looked up): T1 sequence (looked up)
Procedure: (§1) To evaluate the capability of the anti-LAG-3 antibodies to bind to human, rat, and mouse LAG3 the antibodies identified in Example 2.1 were evaluated for their binding property through ELISA. The human, rat and mouse LAG3 ECD-Fc protein were coated to ELISA plate at 1 μg/ml with 100 μl/well. Antibodies from Example 1 were serially diluted with ELISA diluent buffer. […] The resulting plates were washed and then labeled with anti-human IgG(Fab)-HRP antibody. The S31 can only bind to human LAG3. The S27 and T99 can bind to human LAG3 and rat/mouse LAG3 with lower potency. The S119 antibody can bind to human, rat and mouse LAG3 at high potency (FIGS. 22A-22D).

rat LAG3 ECD-Fc protein [3] = target: T3, rat LAG3 ECD-Fc protein (rat, UniProt Q5BK54 24-442); assay: ELISA on coated rat LAG3 ECD-Fc; EC50 table has no unit, x axis Ab(nM); fit value of a flat curve
T3 construct: extracellular domain; not shown: Fc part
T3 sequence (looked up): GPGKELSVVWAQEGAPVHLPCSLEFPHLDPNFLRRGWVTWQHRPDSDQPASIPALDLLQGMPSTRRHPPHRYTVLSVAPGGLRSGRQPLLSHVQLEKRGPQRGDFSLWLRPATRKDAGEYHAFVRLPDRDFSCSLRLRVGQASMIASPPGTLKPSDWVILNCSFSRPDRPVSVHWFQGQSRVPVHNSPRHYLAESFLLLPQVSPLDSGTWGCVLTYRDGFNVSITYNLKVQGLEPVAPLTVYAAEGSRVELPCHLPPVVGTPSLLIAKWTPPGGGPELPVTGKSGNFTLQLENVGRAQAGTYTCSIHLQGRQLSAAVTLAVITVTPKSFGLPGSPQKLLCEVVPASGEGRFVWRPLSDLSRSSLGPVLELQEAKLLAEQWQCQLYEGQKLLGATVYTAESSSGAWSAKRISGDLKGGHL
Procedure: as §1

[4] = target: T4, mouse LAG3 ECD-Fc protein (mouse, UniProt Q61790 24-442); assay: ELISA on coated mouse LAG3 ECD-Fc; EC50 table has no unit, x axis Ab(nM); fit value of a flat curve
T4 construct: extracellular domain; not shown: Fc part
T4 sequence (looked up): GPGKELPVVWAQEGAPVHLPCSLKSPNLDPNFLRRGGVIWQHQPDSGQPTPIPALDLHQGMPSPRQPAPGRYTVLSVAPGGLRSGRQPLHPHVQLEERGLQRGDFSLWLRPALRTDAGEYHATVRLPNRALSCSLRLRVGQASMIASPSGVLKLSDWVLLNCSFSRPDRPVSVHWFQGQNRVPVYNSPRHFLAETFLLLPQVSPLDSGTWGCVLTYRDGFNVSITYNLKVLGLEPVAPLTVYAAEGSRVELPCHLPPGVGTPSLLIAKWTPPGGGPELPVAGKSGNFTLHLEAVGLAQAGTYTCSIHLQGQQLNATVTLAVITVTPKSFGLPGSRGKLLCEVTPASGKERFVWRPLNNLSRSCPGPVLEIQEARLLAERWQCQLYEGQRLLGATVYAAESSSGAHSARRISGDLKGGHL
Procedure: as §1

[5] = target: T2, recombinant human LAG-3-ECD-human IgG1 …; assay: flow cytometry; blocking of biotin-LAG-3-ECD-huFc binding to MHC class II on Raji cells; the curve ends at about 20 nM without a lower plateau
Procedure: (§2) To evaluate the ability of anti-LAG-3 antibodies to block the binding of sLAG-3 to MHC class II receptor, an in vitro binding assay was designed using biotin-labeled LAG-3-ECD-huFc fusion proteins and Raji cells expressing MHC class II receptor. Antibodies from Example 1 were serially diluted from 20 μg/mL with FACS buffer and pre-incubated with 6 μg/mL of biotin-LAG-3-ECD-huFcc for 30 min at room temperature. The antibody mixture was then added to FcR blocked Raji cells and incubated for 30 min on ice. Cells were then washed with FACS buffer and subsequently stained with streptavidin PE for 30 min on ice and subsequently washed once with FACS buffer. Labeled cells were evaluated for fluorescence intensity by flow cytometry in a BD FACSCalibur™.

[6] = target: T2, recombinant human LAG-3-ECD-human IgG1 …; assay: ELISA on coated D1-D4 huFc; EC50 table has no unit, x axis Ab(nM)
Procedure: Briefly, D1-D4 huFc or ΔD1-D2 huFc was coated at 0.5 μg/ml overnight and then blocked by 5% BSA in PBS. The serially diluted antibodies (starting from 1 μg/ml and 1:3 serial dilution for 10 doses) were incubated with the coated antigen for 1 hr at room temperature. The resulting plates were washed with PBS/T and incubated with goat anti-mouse IgG-HRP for 1 h at room temperature. The plates were developed with TMB substrate and analyzed by spectrophotometer at OD 450-630 nm.

[7] = target: T2, recombinant human LAG-3-ECD-human IgG1 …; assay: flow cytometry; blocking of biotin-LAG-3-ECD-huFc binding to MHC class II on Raji cells
Procedure: as §2, with “Antibodies from Example 1 were serially diluted from 20 μg/mL with FACS buffer and pre-incubated with 6 μg/mL of biotin-LAG-3-ECD-huFcc for 30 min at room temperature.” left out

rat LAG3 ECD-Fc protein [8] = target: T3, rat LAG3 ECD-Fc protein; assay: ELISA on coated rat LAG3 ECD-Fc; EC50 table has no unit, x axis Ab(nM)
Procedure: as §1

[9] = target: T4, mouse LAG3 ECD-Fc protein; assay: ELISA on coated mouse LAG3 ECD-Fc; EC50 table has no unit, x axis Ab(nM)
Procedure: as §1

[10] = target: T2, recombinant human LAG-3-ECD-human IgG1 …; assay: flow cytometry; blocking of biotin-LAG-3-ECD-huFc binding to MHC class II on Raji cells; remark: listed apart in the source
Procedure: as §2

B1: NLAG3-HDB169-S31 (antibody, human IgG1, V domains shown)
VH: QVQLVQSGAEVKKPGSSVKVSCKASGGTFSSYAISWVRQAPGQGLEWMGGIIPIFGTANYAQKFQGRVTITADESTSTAYMELSSLRSEDTAVYYCARDAGPVGYYGMDVWGQGTTVTVSS
VL: AIRMTQSPSTLSASVGDRVTITCRASQGIAGWLAWYQQKPGKAPKLLIYAASSLQSGVPSRFSGSASGTDFTLTISNLQPEDFATYYCQQAKSFPLTFGGGTKVEIKR
notes: Short label tied by its unique suffix
B1 showed a Kd [1] of 0.03 nM, a koff [1] of 6.25e-05 s⁻¹ and a kon [1] of 2.08e+06 M⁻¹ s⁻¹. For the same binder, the EC50 [2] was 0.279 nM, the EC50 (rat LAG3 ECD-Fc protein [3]) was about 271000 nM and the EC50 [4] was 119 nM. For the same binder, the IC50 [5] was 82.6 nM.

B2: 147H mouse monoclonal antibody (antibody, V domains shown)
VH: QVQLQQSGSELVRPGTSVKISCKASGYTFTNYWLGWIKQRPGHGLEWIGDIYPGGDYINYNEKFKGKATLSADTSSSTAYMQLSSLTSEDSAVYFCARPNLPGDYWGQGTSVTVSS
VL: DIVMTQAAFSNPVTLGTSASISCRSSKSLLHSNGITYLYWYLQKPGQSPQLLIYQVSNLASGVPGRFSGSGSGTDFTLRISRVEAEDVGVYYCAQNLELPWTFGGGTKLEIK
notes: Mouse hybridoma antibody
With B2 the EC50 [6] was 0.0979 nM and the IC50 [7] was 21.4 nM.

B3: NLAG3-HDB169-S119 (antibody, human IgG1, V domains shown)
VH: QVQLVQSGAEVKKPGSSVKVSCKASGGTFSSYAISWVRQAPGQGLEWMGGIIPIFGTANYAQKFQGRVTITADESTSTAYMELSSLRSEDTAVYYCAASTLRVPNPPYWGQGTLVTVSS
VL: EIVLTQSPGTLSLSPGERATLSCRASQSVSSYLAWYQQKPGQAPRLLIYGISSRATGIPDRFSGSGSGTDFTLTISSLQPEDFATYYCQQANNFPLTFGGGTKLEIKR
notes: as for B1
Binder B3 has a Kd [1] of 0.00687 nM, a koff [1] of 0.000149 s⁻¹ and a kon [1] of 2.17e+07 M⁻¹ s⁻¹. The EC50 (rat LAG3 ECD-Fc protein [8]) was 0.0387 nM, the EC50 [2] was 0.0321 nM and the EC50 [9] was 0.0724 nM. It also gave an IC50 [10] of 9.29 nM.
